Experimental data reported in patent publication US20200270125A1 (OMEROS, published 2020).

T1: human MASP-3 CCP1-CCP2-SP fragment (human)
T1 construct: limits of the assay construct are not restated; also called rMASP-3 (CCP1-CCP2-SP)
T1 chain: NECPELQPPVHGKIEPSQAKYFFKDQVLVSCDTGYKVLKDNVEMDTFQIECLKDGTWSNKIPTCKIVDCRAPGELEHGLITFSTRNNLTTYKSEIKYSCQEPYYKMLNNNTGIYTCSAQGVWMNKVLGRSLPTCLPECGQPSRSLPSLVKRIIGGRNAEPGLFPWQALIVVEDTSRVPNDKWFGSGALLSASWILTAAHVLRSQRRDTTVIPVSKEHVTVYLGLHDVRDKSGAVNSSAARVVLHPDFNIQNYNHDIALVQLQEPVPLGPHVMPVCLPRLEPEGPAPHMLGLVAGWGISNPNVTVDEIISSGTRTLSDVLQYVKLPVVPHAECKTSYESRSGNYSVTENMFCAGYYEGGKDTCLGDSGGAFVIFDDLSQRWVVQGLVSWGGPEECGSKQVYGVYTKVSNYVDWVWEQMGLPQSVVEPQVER

T2: human MASP-3 (construct not stated) (human)
T2 construct: also called MASP-3 antigen
T2 chain: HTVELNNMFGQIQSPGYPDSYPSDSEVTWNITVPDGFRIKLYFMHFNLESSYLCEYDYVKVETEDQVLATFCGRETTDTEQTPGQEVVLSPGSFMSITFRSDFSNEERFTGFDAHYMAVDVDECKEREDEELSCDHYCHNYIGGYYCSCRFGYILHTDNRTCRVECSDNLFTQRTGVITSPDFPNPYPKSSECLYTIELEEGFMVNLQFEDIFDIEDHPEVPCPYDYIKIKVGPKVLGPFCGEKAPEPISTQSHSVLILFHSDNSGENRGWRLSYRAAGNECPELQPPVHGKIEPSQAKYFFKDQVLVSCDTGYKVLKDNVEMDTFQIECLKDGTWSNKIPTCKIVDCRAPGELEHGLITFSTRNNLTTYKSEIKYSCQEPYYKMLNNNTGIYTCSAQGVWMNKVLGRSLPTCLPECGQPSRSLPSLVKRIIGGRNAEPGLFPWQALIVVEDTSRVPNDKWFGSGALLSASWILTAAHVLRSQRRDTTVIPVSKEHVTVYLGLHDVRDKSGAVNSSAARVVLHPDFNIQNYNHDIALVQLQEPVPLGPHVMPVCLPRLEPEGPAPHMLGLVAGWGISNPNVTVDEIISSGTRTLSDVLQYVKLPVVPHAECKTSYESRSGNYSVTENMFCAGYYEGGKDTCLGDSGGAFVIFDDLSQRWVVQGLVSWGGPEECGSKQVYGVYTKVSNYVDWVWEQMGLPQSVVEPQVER

T3: recombinant full-length mouse MASP-3 (mouse)
T3 construct: Entry is with leader; also called mouse full length MASP-3
T3 chain: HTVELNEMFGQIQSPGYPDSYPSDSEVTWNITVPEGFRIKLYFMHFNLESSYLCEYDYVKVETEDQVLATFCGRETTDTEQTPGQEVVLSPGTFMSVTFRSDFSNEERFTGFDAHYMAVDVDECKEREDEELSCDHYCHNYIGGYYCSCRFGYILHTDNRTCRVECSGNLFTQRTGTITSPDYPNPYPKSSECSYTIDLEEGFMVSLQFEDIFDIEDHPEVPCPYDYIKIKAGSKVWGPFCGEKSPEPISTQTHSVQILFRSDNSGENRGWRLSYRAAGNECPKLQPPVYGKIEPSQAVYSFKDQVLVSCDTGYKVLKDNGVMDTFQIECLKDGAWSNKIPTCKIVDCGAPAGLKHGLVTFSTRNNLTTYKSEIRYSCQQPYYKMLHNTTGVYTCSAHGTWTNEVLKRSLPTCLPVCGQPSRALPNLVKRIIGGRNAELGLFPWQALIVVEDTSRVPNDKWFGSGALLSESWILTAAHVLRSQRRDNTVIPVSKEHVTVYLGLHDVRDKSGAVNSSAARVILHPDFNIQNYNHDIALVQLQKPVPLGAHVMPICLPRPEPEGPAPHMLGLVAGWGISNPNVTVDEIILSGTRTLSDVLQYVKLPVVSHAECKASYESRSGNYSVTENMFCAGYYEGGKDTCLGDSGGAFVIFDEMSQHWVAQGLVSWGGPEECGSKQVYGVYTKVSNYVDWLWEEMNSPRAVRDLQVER

T4: recombinant human MASP-1A (S646A, CCP1-CCP2-SP fragment) (human, UniProt P48740 298-699, limits assumed)
T4 chain: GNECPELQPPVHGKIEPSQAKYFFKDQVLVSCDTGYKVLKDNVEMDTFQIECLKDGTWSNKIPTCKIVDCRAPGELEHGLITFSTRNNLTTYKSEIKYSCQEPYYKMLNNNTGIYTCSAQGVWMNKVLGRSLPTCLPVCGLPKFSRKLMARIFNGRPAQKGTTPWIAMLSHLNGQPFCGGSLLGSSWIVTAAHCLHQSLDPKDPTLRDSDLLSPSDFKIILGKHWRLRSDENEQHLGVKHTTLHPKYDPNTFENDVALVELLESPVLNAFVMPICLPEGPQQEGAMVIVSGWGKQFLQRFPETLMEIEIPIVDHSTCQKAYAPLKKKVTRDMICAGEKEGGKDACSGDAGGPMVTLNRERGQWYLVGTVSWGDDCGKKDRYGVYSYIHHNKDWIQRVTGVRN


Tests used:
[1] = target: T1, human MASP-3 CCP1-CCP2-SP fragment; experiment: sandwich ELISA, MASP-3 CCP1-CCP2-SP captured by αM3-259
Procedure: (§1) The plate was then washed (PBS-T, 0.05%) and the candidate MASP-3 antibodies were added followed by incubation for one hour at room temperature. The plate was washed (PBS-T, 0.05%) and a detection antibody was added (mouse anti-human kappa-HRP, SouthernBiotech #9230-05) for one hour at room temperature. After another wash (PBS-T, 0.05%) the plate was developed (5 minutes) with OPT EIA TMB (BD Biosciences #555214). Absorbance reading at A450 was measured using the Spectramax M5e plate reader.

[2] = target: T2, human MASP-3 (construct not stated); experiment: not described at this place
[3] = target: T3, recombinant full-length mouse MASP-3; experiment: sandwich ELISA, full-length mouse MASP-3 captured by αM3-259
Procedure: as §1

[4] = target: T2, human MASP-3 (construct not stated); experiment: cell-based or functional assay
[5] = target: T1, human MASP-3 CCP1-CCP2-SP fragment; experiment: sandwich ELISA: human MASP-3 CCP1-CCP2-SP captured on aM3-259, mAb detected with anti-human kappa-HRP, A450
Procedure: as §1

[6] = target: T4, recombinant human MASP-1A (S646A, …); experiment: ELISA: recombinant MASP-1A (S646A, CCP1-CCP2-SP) coated directly on the plate, A450
Procedure: as §1

[7] = target: T1, human MASP-3 CCP1-CCP2-SP fragment; experiment: cell-based or functional assay
[8] = target: T5, recombinant human MASP-2 (CCP1-CCP2-SP fragment) (human, UniProt O00187 298-686, limits assumed); experiment: ELISA: recombinant MASP-2 (CCP1-CCP2-SP) coated directly on the plate, A450
T5 construct: domain: CCP1-CCP2-SP fragment
Procedure: as §1

[9] = target: T2, human MASP-3 (construct not stated); experiment: cell-based or functional assay

T5 sequence (O00187 298-686 limits assumed): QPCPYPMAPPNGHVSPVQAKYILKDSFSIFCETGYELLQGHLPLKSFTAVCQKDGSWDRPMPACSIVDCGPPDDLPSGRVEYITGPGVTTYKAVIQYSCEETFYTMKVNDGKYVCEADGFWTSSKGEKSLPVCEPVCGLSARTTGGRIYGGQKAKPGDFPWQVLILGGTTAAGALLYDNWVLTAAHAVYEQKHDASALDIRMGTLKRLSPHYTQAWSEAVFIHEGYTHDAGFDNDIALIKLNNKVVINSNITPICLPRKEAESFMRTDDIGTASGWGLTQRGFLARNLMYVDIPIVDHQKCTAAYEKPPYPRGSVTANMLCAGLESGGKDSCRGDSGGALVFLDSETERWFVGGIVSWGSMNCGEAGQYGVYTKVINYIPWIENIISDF

Binder | EC50 [1] [nM] | binding affinity [2] [pM] | EC50 [3] [nM] | Inhibition of Factor Bb Deposition on Zymosan (IC50 nM), 10% factor D-depleted human serum with pro-factor D [4] [nM] | EC50 [5] [nM] | inhibition of MASP-3-dependent fluorogenic tripeptide (BOC-V-P-R-AMC) cleavage [7] [nM] | Inhibition of Rabbit Erythrocyte Lysis (IC50 nM), 10% factor D-depleted human serum [9] [nM] | binding result [6] | binding result [8]
MASP-3 mAb 10D12 (mouse-human chimeric IgG4) (antibody, V domains shown) VH: QIQLVQSGPELKKPGETVKISCKASGYIFTSYGMSWVRQAPGKGLKWMGWINTYSGVPTYADDFKGRFAFSLETSARTPYLQINNLKNEDTATYFCARGGEAMDYWGQGTSVTVSS VL: not shown | 0.089 | ≤ 500 | 0.081 | 0.5 | 0.023 | 30.9 |  | no binding (tested: about 20 nM (log10 about 1.3)) | no binding (tested: about 20 nM (log10 about 1.3))
MASP-3 mAb 1G4 (mouse-human chimeric IgG4) (antibody, V domains shown) VH: QVQLKQSGAELMKPGASVKLACKATGYTFTGYWIEWIKQRPGQGLEWIGEMLPGSGSTHYNEKFKGKATFTADTSSNTAYMQLSGLTTEDSAIYYCVRSIDYWGQGTTLTVSS VL: DVLMTQTPLSLPVSLGEQASISCRSSQSLVQSNGNTYLHWYLQKPGQSPKLLIYKVSNRFSGVPDRFSGSGSGTDFTLKISRVEAEDLGVYFCSQSTHVPPTFGGGTKLEIKR | 0.177 | ≤ 500 | 3.7 | 1.1 |  | 29.6 | 2.7 | no binding (tested: about 20 nM (log10 about 1.3)) | no binding (tested: about 20 nM (log10 about 1.3))
MASP-3 mAb 1A10 (mouse-human chimeric IgG4) (antibody, V domains shown, The light chain of 1A10 was not identified) VH: QVQLKQSGPELVKPGASVKLSCKASGYTFTSNDINWVKQRPGQGLEWIGWIYPRDGTTKYNEKFTDKATLTVDVSSSTAFMELHRLTSEDSAVYFCSSVEDSYWGQGTLVTVSS VL: DIVMTQSPSSLAVSAGEKVTMSCKSSQSLLISRTRKNYLSWYQQKPGQSPKLLIYWASTRESGVPDRFTGSGSGTDFTLTISSVQAEDLAVYYCKQSYNLYTFGGGTKLEIKR | 0.241 | ≤ 500 | 0.15 |  |  | 29.8 | 0.2 | no binding (tested: about 20 nM (log10 about 1.3)) | no binding (tested: about 20 nM (log10 about 1.3))
MASP-3 mAb 2D7 (mouse-human chimeric IgG4) (antibody, V domains shown) VH: EVQLQQSGPELVKPGASVKVSCKASGYTLTDYYMNWVKQSHGKSLEWIGDVNPNNDGTTYNQKFKGRATLTVDKSSNTASMELRSLTSEDSAVYYCAICPFYYLGKGTHFDYWGQGTSLTVSS VL: DIQMTQTPASLSASLGDRVTISCRASQDISNFLNWYQQKPNGTVKLLVFYTSRLHSGVPSRFSGSGSGAEHSLTISNLEQEDVATYFCQQGFTLPWTFGGGTKVEIKR | 0.122 | ≤ 500 |  | 3.5 |  |  | 5.4 | no binding (tested: about 20 nM (log10 about 1.3)) | no binding (tested: about 20 nM (log10 about 1.3))

More lines, in order of falling EC50 [1], values ahead:

EC50 [1] [nM] | binding affinity [2] [pM] | EC50 [3] [nM] | Inhibition of Factor Bb Deposition on Zymosan (IC50 nM), 10% factor D-depleted human serum with pro-factor D [4] [nM] | EC50 [5] [nM] | inhibition of MASP-3-dependent fluorogenic tripeptide (BOC-V-P-R-AMC) cleavage [7] [nM] | Inhibition of Rabbit Erythrocyte Lysis (IC50 nM), 10% factor D-depleted human serum [9] [nM] | Binder | binding result [6] | binding result [8]
0.236 | ≤ 500 | 0.111 | 0.1 |  | 33 | 0.2 | MASP-3 mAb 1F3 (mouse-human chimeric IgG4) (antibody, V domains shown) VH: QVQLKQSGPELVKPGASVKLSCKASGYTFTSNDINWVKQRPGQGLEWIGWIYPRDGSIKYNEKFTDKATLTVDVSSSTAYMELHSLTSEDSAVYFCSGVEDSYWGQGTLVTVSS VL: DIVMTQSPSSLAVSAGERVTMSCKSSQSLLISRTRKNYLSWYQQKPGQSPKLLIYWASTRESGVPDRFTGSGSGTDFTLTISSVQAEDLAVYYCKQSYNLYTFGGGTKLEIKR | no binding (tested: about 20 nM (log10 about 1.3)) | no binding (tested: about 20 nM (log10 about 1.3))
0.211 | ≤ 500 | 0.188 | 0.2 |  | 26 | 0.2 | MASP-3 mAb 4B6 (mouse-human chimeric IgG4) (antibody, V domains shown) VH: QVQLKQSGPELVKPGASVKLSCKASGYTFTSNDINWVKQRPGQGLEWIGWIYPRDGTTKYNEEFTDKATLTVDVSSSTAFMELHSLTSEDSAVYFCSSVEDSYWGQGTLVTVSS VL: DIVMTQSPSSLAVSAGEKVTMSCKSSQSLLISRTRKNYLSWYQQKPGQSPKLLIYWASTRESGVPDRFTGSGSGTDFTLTISSVQAEDLAVYYCKQSYNLYTFGGGTKLEIKR | no binding (tested: about 20 nM (log10 about 1.3)) | no binding (tested: about 20 nM (log10 about 1.3))
